{"source": "paper PMC4817256", "target": "eukaryotic translation initiation factor 4E (human (endogenous in U2OS and HeLa)) (UniProt P06730)", "sequence (P06730 whole entry)": "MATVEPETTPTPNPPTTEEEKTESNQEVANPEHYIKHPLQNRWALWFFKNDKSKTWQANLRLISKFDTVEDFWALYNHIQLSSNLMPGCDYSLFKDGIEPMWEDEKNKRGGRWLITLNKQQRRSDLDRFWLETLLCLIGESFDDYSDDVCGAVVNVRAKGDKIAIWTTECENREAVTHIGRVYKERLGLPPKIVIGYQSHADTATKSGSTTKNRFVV", "assay": "proximity ligation", "data": [{"substance": "HIV-1 Gag-GFP (natural protein)", "values": [{"measurement": "PLA dots per cell (dots per cell)", "value": 6.98}]}]}
